Measured values reported in US20150299263A1 (FACTOR THERAPEUTICS, published 2015).
Where no end group is shown, it is not given here.

Key:
[1] = target: T1, Human receptor grade IGF-II (insulin-like growth factor II) (human, UniProt P01344 25-91); assay: VN-peptide array, ligand overlay, immunoblot/ECL
T1 construct: Bought recombinant protein, overlaid in solution on the VN-peptide array

[2] = target: T1, Human receptor grade IGF-II …; assay: VN-peptide array, ligand overlay, immunoblot/ECL, TotalLab spot intensity
Experimental: (§1) Methanol or ethanol was used to enhance the rehydration of peptide spots that might be hydrophobic. The peptides spotted onto the membranes were activated by incubating in 3 mL of 70% ethanol for five mins. The membranes were subsequently washed three times, 10 minutes each, in 10 mL TBS (Tris Buffered Saline; 8 g NaCl, 0.2 g KCl and 6.1 g Tris Base into 1000 mL of milliQ water, pH 7) with gentle rocking. Membrane blocking was performed by incubating in 10 mL casein-based membrane blocking buffer (MBS; Sigma-Aldrich) overnight at 4° C. The following day, the membranes were washed twice, 10 minutes each, in 10 mL TBS-T (TBS+0.05% Tween-20; pH 7).
(§2) Ligands used to test binding to VN-peptides were IGFBP-3, IGFBP-5 and IGF-II. For ligand binding, four separate solutions of 1 μg/mL ligand in 10 mL MBS buffer were prepared and each membrane was incubated in one of the four ligand solutions overnight at 4° C., with gentle rocking. […] The following day, the membranes were washed three times, 10 minutes each, in 10 mL TBS-T.
(§3) The binding of the ligands to peptides within the membrane was detected using immunoblotting. The membranes were incubated overnight at 4° C. with 10 mL primary antibody solution (in MBS buffer) targeting the respective ligands. The antibodies used were anti-IGFBP-3 (1:10,000), anti-IGFBP-5 (1:10,000) and anti-IGF-II (1:5000) to detect IGFBP-3, IGFBP-5 and IGF-II respectively. The following day, the membranes were washed three times, 10 minutes each, in 10 mL TBS-T and incubated with 10 mL HRP-conjugated secondary IgG antibody diluted 1:15,000 in MBS buffer for 1 hour at room temperature. Following a further three washes of 10 minutes each, the peptide spots were visualized using ECL. The membranes were exposed onto x-ray films and developed using a film processor (AGFA CP 1000), or were imaged directly using the ChemiDoc™ XRS system (BioRad).

[3] = target: T2, Human receptor grade IGFBP-3 (insulin-like growth factor binding protein 3) (human, UniProt P17936 28-291); assay: as above
T2 construct: Bought recombinant protein, overlaid in solution on the VN-peptide array
T2 sequence (P17936 28-291 limits assumed): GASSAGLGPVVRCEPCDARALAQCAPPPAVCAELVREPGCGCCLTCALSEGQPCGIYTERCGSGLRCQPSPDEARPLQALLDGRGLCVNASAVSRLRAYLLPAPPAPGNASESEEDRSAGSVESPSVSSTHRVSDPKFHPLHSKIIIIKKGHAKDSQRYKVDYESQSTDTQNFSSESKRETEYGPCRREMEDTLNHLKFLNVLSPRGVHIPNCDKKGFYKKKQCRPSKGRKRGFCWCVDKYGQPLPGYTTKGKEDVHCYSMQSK
Experimental: as §1, §2, §3

[4] = target: T3, Human receptor grade IGFBP-5 (insulin-like growth factor binding protein 5) (human, UniProt P24593 21-272); assay: as above
T3 construct: Bought recombinant protein, overlaid in solution on the VN-peptide array
T3 sequence (P24593 21-272 limits assumed): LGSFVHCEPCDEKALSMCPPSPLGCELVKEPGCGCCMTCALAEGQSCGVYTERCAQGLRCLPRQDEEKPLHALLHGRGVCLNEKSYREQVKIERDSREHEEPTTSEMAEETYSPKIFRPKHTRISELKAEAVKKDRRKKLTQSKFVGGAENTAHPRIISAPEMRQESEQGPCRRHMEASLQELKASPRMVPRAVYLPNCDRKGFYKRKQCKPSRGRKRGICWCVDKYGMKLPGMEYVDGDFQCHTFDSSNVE
Experimental: as §1, §2, §3

T1 sequence (P01344 25-91 limits assumed): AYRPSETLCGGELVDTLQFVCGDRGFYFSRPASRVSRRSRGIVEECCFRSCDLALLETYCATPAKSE

B1: VN peptide P7 (LFSSEESNLGANNYDDYRMDWL) (peptide)
peptide: LFSSEESNLGANNYDDYRMDWL
notes: Free synthetic peptide (Mimotopes) in the migration and growth assays; The array carried only its overlapping 16-mers 7A-7C; also called Peptide 7; motif-7 mimic
binding result [1]: binds

B2: VN-peptide 3A (array grid F5) (peptide)
peptide: VDAALALPAHSYSGRE
modifications: not fully specified (N-terminus); also: free end capped by acetylation, immobilised on cellulose membrane (SPOT synthesis)
Intensity (against -ve control) [2]: 5 fold over negative controls | Intensity (against -ve control) [3]: 1 fold over negative controls | Intensity (against -ve control) [4]: 3 fold over negative controls

B3: VN-peptide 8C (array grid J6) (peptide)
peptide: Ac-LRTRRVDTVDPPYPRS
modifications: also: immobilised on cellulose membrane
Intensity (against -ve control) [2]: 13 fold over negative controls | Intensity (against -ve control) [3]: 10 fold over negative controls | Intensity (against -ve control) [4]: 9 fold over negative controls

B4: VN-peptide 6A (array grid G12) (peptide)
peptide: GRTSAGTRQPQFISRD
modifications: not fully specified (N-terminus); also: free end capped by acetylation, immobilised on cellulose membrane (SPOT synthesis)
Intensity (against -ve control) [2]: 12 fold over negative controls | Intensity (against -ve control) [3]: 2 fold over negative controls | Intensity (against -ve control) [4]: 7 fold over negative controls

B5: VN-peptide 3B (array grid F6) (peptide)
peptide: ALALPAHSYSGRERVY
modifications: not fully specified (N-terminus); also: free end capped by acetylation, immobilised on cellulose membrane (SPOT synthesis)
Intensity (against -ve control) [2]: 10 fold over negative controls | Intensity (against -ve control) [3]: 1 fold over negative controls | Intensity (against -ve control) [4]: 3 fold over negative controls

B6: VN-peptide 1A (array grid A13) (peptide)
peptide: CQCDELCSYYQSCCTD
modifications: not fully specified (N-terminus); cysteine pairing not given here; also: free end capped by acetylation, immobilised on cellulose membrane (SPOT synthesis)
binding result [1]: binds | Intensity (against -ve control) [3]: 10 fold over negative controls | Intensity (against -ve control) [4]: 11 fold over negative controls

B7: VN-peptide 8B (array grid J5) (peptide)
peptide: RVNLRTRRVDTVDPPY
modifications: not fully specified (N-terminus); also: free end capped by acetylation, immobilised on cellulose membrane (SPOT synthesis)
Intensity (against -ve control) [2]: 17 fold over negative controls | Intensity (against -ve control) [3]: 7 fold over negative controls | Intensity (against -ve control) [4]: 7 fold over negative controls

B8: VN-peptide 6C (array grid G14) (peptide)
peptide: TRQPQFISRDWHGVPG
modifications: not fully specified (N-terminus); also: free end capped by acetylation, immobilised on cellulose membrane (SPOT synthesis)
Intensity (against -ve control) [2]: 1.5 fold over negative controls | Intensity (against -ve control) [3]: 1.5 fold over negative controls | Intensity (against -ve control) [4]: 5 fold over negative controls

B9: VN-peptide 8D (array grid J7) (peptide)
peptide: Ac-RRVDTVDPPYPRSIAQ
modifications: also: immobilised on cellulose membrane
Intensity (against -ve control) [2]: 11 fold over negative controls | Intensity (against -ve control) [3]: 4 fold over negative controls | Intensity (against -ve control) [4]: 8 fold over negative controls

B10: VN-peptide 6B (array grid G13) (peptide)
peptide: SAGTRQPQFISRDWHG
modifications: not fully specified (N-terminus); also: free end capped by acetylation, immobilised on cellulose membrane (SPOT synthesis)
Intensity (against -ve control) [2]: 0 fold over negative controls | Intensity (against -ve control) [3]: 1 fold over negative controls | Intensity (against -ve control) [4]: 1.5 fold over negative controls

B11: VN-peptide 8A (array grid J4) (peptide)
peptide: KYYRVNLRTRRVDTVD
modifications: not fully specified (N-terminus); also: free end capped by acetylation, immobilised on cellulose membrane (SPOT synthesis)
Intensity (against -ve control) [2]: 5 fold over negative controls | Intensity (against -ve control) [3]: 5 fold over negative controls | Intensity (against -ve control) [4]: 3 fold over negative controls
